In US20240116985A1, “STAPLED PEPTIDES AND METHODS THEREOF” (priority 2020, published 2024):
Starred links: 1 amine or outer side, 2 acyl side, 3 side chain; linkers in the order of their positions; H or OH if unused. Positions of bridges follow the written chain, without caps; N, C: chain ends. Non-standard residues stand in square brackets, D forms with d. Primed or numbered codes have the meaning given here. PyrS2″ = (S)-3-amino-1-((pent-4-en-1-yloxy)carbonyl)pyrrolidine-3-carboxylic acid (stapling residue), C=CCCCOC(=O)N1CC[C@@](N[*:1])(C(=O)[*:2])C1; B5(16) = 2-amino-2-(pent-4-en-1-yl)hept-6-enoic acid = 2,2-bis(4-pentenyl)glycine (stitching residue), C=CCCCC(CCCC=C)(N[*:1])C(=O)[*:2]; B5(4) = 2,2-bis(4-pentenyl)glycine = 2-amino-2-(pent-4-en-1-yl)hept-6-enoic acid (stitching residue), C=CCCCC(CCCC=C)(N[*:1])C(=O)[*:2]; B5(5) = 2,2-bis(4-pentenyl)glycine, 2-amino-2-(pent-4-en-1-yl)hept-6-enoic acid (stitching residue), C=CCCCC(CCCC=C)(N[*:1])C(=O)[*:2]; TfeGA = (S)-2-amino-3-((carboxymethyl)(2,2,2-trifluoroethyl)amino)propanoic acid, O=C([C@H](CN(CC(=O)[*:3])CC(F)(F)F)N[*:1])[*:2]; PyrS2 = (S)-3-amino-1-((pent-4-en-1-yloxy)carbonyl)pyrrolidine-3-carboxylic acid, C=CCCCOC(=O)N1CC[C@@](N[*:1])(C(=O)[*:2])C1; B5(27) = 2-amino-2-(pent-4-en-1-yl)hept-6-enoic acid (two alkene side-chain arms), C=CCCCC(CCCC=C)(N[*:1])C(=O)[*:2]; MePpzAsn = (S)-2-amino-4-(4-methylpiperazin-1-yl)-4-oxobutanoic acid, CN1CCN(C(=O)C[C@H](N[*:1])C(=O)[*:2])CC1; AspSH = (S)-2-amino-4-mercapto-4-oxobutanoic acid, O=C(C[C@H](N[*:1])C(=O)[*:2])S[*:3]; B5 = 2-amino-2-(pent-4-en-1-yl)hept-6-enoic acid, C=CCCCC(CCCC=C)(N[*:1])C(=O)[*:2]; Phe(3-CONH2) = NC(=O)c1cccc(C[C@H](N)C(=O)O)c1; Phe(2-CONH2) = NC(=O)c1ccccc1C[C@H](N)C(=O)O; Phe(2-Cl) = N[C@@H](Cc1ccccc1Cl)C(=O)O; Bta = N[C@@H](Cc1csc2ccccc12)C(=O)O; Lys(iPr) = CC(C)NCCCC[C@H](N)C(=O)O; αAllylPro = C=CC[C@@]1(C(=O)O)CCCN1; tBuAla = CC(C)(C)C[C@H](N)C(=O)O; 3Thi = N[C@@H](Cc1ccsc1)C(=O)O; Cha = N[C@@H](CC1CCCCC1)C(=O)O; S8 = C=CCCCCCC[C@](C)(N)C(=O)O; TfeGA″ = not defined here; hSer = N[C@@H](CCO)C(=O)O; Nle = CCCC[C@H](N)C(=O)O

B1: I-383 (peptide)
peptide: XDAXDEAAFVXXXQ
modifications: not fully specified; N-terminal Ac; PL3 at 1, B5 at 4, S8 at 11 (staples 1-4 and 4-11 by olefin metathesis); 2pyrA at 12; BztA at 13; C-terminal NH2

biological target: full-length beta-Catenin (Uniprot ID P35222) (Homo sapiens (Human)) (UniProt P35222); test: fluorescence polarization competition; displacement of 5FAM-TCF4(10-53) from full-length beta-catenin
Target sequence in this assay (P35222 whole entry): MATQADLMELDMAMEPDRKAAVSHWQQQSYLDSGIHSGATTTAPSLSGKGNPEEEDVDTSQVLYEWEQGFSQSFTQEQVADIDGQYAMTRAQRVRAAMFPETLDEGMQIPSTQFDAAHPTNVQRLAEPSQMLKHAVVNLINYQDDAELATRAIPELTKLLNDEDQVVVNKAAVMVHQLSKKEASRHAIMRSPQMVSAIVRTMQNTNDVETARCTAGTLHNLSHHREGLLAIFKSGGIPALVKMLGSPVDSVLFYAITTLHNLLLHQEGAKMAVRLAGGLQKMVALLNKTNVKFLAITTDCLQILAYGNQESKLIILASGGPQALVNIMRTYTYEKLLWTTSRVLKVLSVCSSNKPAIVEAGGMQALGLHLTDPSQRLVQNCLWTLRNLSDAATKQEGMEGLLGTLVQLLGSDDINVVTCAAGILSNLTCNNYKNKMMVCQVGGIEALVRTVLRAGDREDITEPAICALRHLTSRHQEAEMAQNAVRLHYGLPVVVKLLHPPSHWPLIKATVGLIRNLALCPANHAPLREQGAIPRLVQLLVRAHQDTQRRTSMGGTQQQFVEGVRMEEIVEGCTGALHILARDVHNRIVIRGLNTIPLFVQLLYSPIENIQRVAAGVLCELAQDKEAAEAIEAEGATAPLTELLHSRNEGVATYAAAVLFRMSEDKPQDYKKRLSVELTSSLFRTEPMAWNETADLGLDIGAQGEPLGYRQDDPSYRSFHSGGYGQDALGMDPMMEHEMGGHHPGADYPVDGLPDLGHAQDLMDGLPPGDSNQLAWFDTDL

Row | IC50 [nM] | Binder
1 | 27 | Ac-[αAllylPro]DS[B5(4)]DDAAFL[PyrS2″][3Thi][Bta][hSer]-NH2 (staple 1-4, 4-11) [I-1514: Ac-PL3-Asp-Ser-B5-Asp-Asp-Ala-Ala-Phe-Leu-PyrS2-3Thi-BztA-Hse-NH2]
2 | 17 | Ac-[αAllylPro]D[Nle][B5(5)]DEAAF[hSer][S8]F[Bta]Q-NH2 (staple 1-4, 4-11; also: staple isomer, earlier eluting HPLC peak) [I-1524: Ac-PL3-Asp-nLeu-B5-Asp-Glu-Ala-Ala-Phe-Hse-S8-Phe-BztA-Gln-NH2]
3 | 12 | Ac-[αAllylPro]DY[B5(5)]DDAAFL[PyrS2″][3Thi][Bta][hSer]-NH2 (staple 1-4, 4-11) [I-1512: Ac-PL3-Asp-Tyr-B5-Asp-Asp-Ala-Ala-Phe-Leu-PyrS2-3Thi-BztA-Hse-NH2]
4 | 10 | Ac-[αAllylPro]DF[B5(27)]DDAAFL[PyrS2][3Thi][Bta][hSer]-NH2 (staple 1-4, 4-11) [I-1510: Ac-PL3-Asp-Phe-B5-Asp-Asp-Ala-Ala-Phe-Leu-PyrS2-3Thi-BztA-Hse-NH2]
5 | 21 | Ac-[αAllylPro]DS[B5(5)]DDAAFL[PyrS2″][3Thi][Bta]Q-NH2 (staple 1-4, 4-11) [I-1513: Ac-PL3-Asp-Ser-B5-Asp-Asp-Ala-Ala-Phe-Leu-PyrS2-3Thi-BztA-Gln-NH2]
6 | 23 | Ac-[αAllylPro]DN[B5(5)]DDAAFL[PyrS2″][3Thi][Bta][hSer]-NH2 (staple 1-4, 4-11) [I-1518: Ac-PL3-Asp-Asn-B5-Asp-Asp-Ala-Ala-Phe-Leu-PyrS2-3Thi-BztA-Hse-NH2]
7 | 22 | Ac-[αAllylPro]D[Nle][B5(5)]DEAAF[hSer][S8]F[Bta]Q-NH2 (staple 1-4, 4-11) [I-1525: Ac-PL3-Asp-nLeu-B5-Asp-Glu-Ala-Ala-Phe-Hse-S8-Phe-BztA-Gln-NH2]
8 | 24 | Ac-[αAllylPro]DT[B5(5)]DDAAFL[PyrS2″][3Thi][Bta]Q-NH2 (staple 1-4, 4-11) [I-1515: Ac-PL3-Asp-Thr-B5-Asp-Asp-Ala-Ala-Phe-Leu-PyrS2-3Thi-BztA-Gln-NH2]
9 | 30 | Ac-[αAllylPro]DT[B5(5)]DDAAFL[PyrS2″][3Thi][Bta][hSer]-NH2 (staple 1-4, 4-11) [I-1516: Ac-PL3-Asp-Thr-B5-Asp-Asp-Ala-Ala-Phe-Leu-PyrS2-3Thi-BztA-Hse-NH2]
10 | 16 | Ac-[αAllylPro]D[Nle][B5(5)]DEAAFQ[S8]F[Bta]Q-NH2 (staple 1-4, 4-11; also: staple isomer, earlier eluting HPLC peak) [I-1521: Ac-PL3-Asp-nLeu-B5-Asp-Glu-Ala-Ala-Phe-Gln-S8-Phe-BztA-Gln-NH2]
11 | 87 | Ac-[αAllylPro]D[tBuAla][B5(4)]DDA[MePpzAsn]FL[PyrS2][3Thi][Bta]Q-NH2 (staple 1-4, 4-11) [I-1508: Ac-PL3-Asp-Npg-B5-Asp-Asp-Ala-MePpzAsn-Phe-Leu-PyrS2-3Thi-BztA-Gln-NH2]
12 | 6 | Ac-[αAllylPro]D[Nle][B5(5)]DEAAFQ[S8]F[Bta]Q-NH2 (staple 1-4, 4-11) [I-1522: Ac-PL3-Asp-nLeu-B5-Asp-Glu-Ala-Ala-Phe-Gln-S8-Phe-BztA-Gln-NH2]
13 | 29 | Ac-[αAllylPro]D[Nle][B5(5)]DEAAFL[S8]F[Bta]Q-NH2 (staple 1-4, 4-11) [I-1523: Ac-PL3-Asp-nLeu-B5-Asp-Glu-Ala-Ala-Phe-Leu-S8-Phe-BztA-Gln-NH2]
14 | 32 | Ac-[αAllylPro]DN[B5(5)]DDAAFL[PyrS2″][3Thi][Bta]Q-NH2 (staple 1-4, 4-11) [I-1517: Ac-PL3-Asp-Asn-B5-Asp-Asp-Ala-Ala-Phe-Leu-PyrS2-3Thi-BztA-Gln-NH2]
15 | 5 | Ac-[αAllylPro]DY[B5(27)]DDAAFL[PyrS2][3Thi][Bta]Q-NH2 (staple 1-4, 4-11) [I-1511: Ac-PL3-Asp-Tyr-B5-Asp-Asp-Ala-Ala-Phe-Leu-PyrS2-3Thi-BztA-Gln-NH2]

biological target: full-length beta-Catenin (Uniprot ID P35222) (Homo sapiens (Human)) (UniProt P35222); test: fluorescence polarization competition; peptide titrated against 10 nM full-length beta-catenin + 10 nM 5FAM-TCF4(10-53)

Row | IC50 [nM] | Binder
16 | 24 | Ac-[αAllylPro]D[tBuAla][B5(4)]D[TfeGA″]AAFL[PyrS2″][3Thi][Bta]T-NH2 (staple 1-4, 4-11; reading uncertain) [I-1706]
17 | 5000 | B1
18 | 1180 | Ac-[αAllylPro]N[Cha][B5(5)]DQ[Lys(iPr)]AFN[PyrS2″][Phe(3-CONH2)][Bta]Q-NH2 (staple 1-4, 4-11) [I-2164]
19 | 9 | Ac-[αAllylPro]D[tBuAla][B5(16)]D[TfeGA]AAFL[PyrS2″][3Thi][Bta]N-NH2 (staple 1-4, 4-11) [I-1705]
20 | 29 | Ac-[αAllylPro]D[tBuAla][B5(4)]D[TfeGA]AAFL[PyrS2″][3Thi][Bta][Phe(3-CONH2)]-NH2 (staple 1-4, 4-11) [I-1708]
21 | 249 | Ac-[αAllylPro]D[tBuAla][B5(5)]D[TfeGA]AAFL[PyrS2″][3Thi][Bta][Phe(2-CONH2)]-NH2 (staple 1-4, 4-11; also: staples hydrogenated: -CH=CH- reduced to -CH2-CH2-) [I-1717]
22 | 95 | Ac-[αAllylPro]D[tBuAla][B5(4)]D[TfeGA]AAFL[PyrS2″][3Thi][Bta]N-NH2 (staple 1-4, 4-11; also: -CH=CH- in each staple reduced to -CH2-CH2-) [I-1715]
23 | 19 | Ac-[αAllylPro]D[tBuAla][B5(4)]D[TfeGA]AAFL[PyrS2″][3Thi][Bta][Phe(2-CONH2)]-NH2 (staple 1-4, 4-11) [I-1707]
24 | 382 | Ac-[αAllylPro]D[tBuAla][B5(5)]D[TfeGA]AAFL[PyrS2″][3Thi][Bta][Phe(3-CONH2)]-NH2 (staple 1-4, 4-11; also: staples hydrogenated: -CH=CH- reduced to -CH2-CH2-) [I-1718]
25 | 139 | Ac-[αAllylPro][AspSH][tBuAla][B5]DDAAFN[PyrS2][Phe(2-Cl)][Bta]Q-NH2 (staple 1-4, 4-11; not fully specified) [I-1721]
26 | 224 | Ac-[αAllylPro]D[tBuAla][B5(4)]D[TfeGA]AAFL[PyrS2″][3Thi][Bta]T-NH2 (staple 1-4, 4-11; also: -CH=CH- in each staple reduced to -CH2-CH2-) [I-1716]
27 | 1590 | Ac-[αAllylPro]N[Cha][B5(5)]DQ[Lys(iPr)]AFL[PyrS2″][Phe(3-CONH2)][Bta][hSer]-NH2 (staple 1-4, 4-11) [I-2166]
28 | 441 | Ac-[αAllylPro]N[Cha][B5(5)]DQ[Lys(iPr)]AFL[PyrS2″]F[Bta][hSer]-NH2 (staple 1-4, 4-11) [I-2165]
29 | 3720 | Ac-[αAllylPro]N[Cha][B5(5)]DQ[Lys(iPr)]AFL[PyrS2″][Phe(3-CONH2)][Bta]Q-NH2 (staple 1-4, 4-11) [I-2163]
